According to PMC4191393, “Selective microRNA uridylation by Zcchc6 (TUT7) and Zcchc11 (TUT4)”:

Molecular target: T1, r.Zcchc11 (TUT4) (Homo sapiens, UniProt Q5TAX3 225-1384)
T1 sequence: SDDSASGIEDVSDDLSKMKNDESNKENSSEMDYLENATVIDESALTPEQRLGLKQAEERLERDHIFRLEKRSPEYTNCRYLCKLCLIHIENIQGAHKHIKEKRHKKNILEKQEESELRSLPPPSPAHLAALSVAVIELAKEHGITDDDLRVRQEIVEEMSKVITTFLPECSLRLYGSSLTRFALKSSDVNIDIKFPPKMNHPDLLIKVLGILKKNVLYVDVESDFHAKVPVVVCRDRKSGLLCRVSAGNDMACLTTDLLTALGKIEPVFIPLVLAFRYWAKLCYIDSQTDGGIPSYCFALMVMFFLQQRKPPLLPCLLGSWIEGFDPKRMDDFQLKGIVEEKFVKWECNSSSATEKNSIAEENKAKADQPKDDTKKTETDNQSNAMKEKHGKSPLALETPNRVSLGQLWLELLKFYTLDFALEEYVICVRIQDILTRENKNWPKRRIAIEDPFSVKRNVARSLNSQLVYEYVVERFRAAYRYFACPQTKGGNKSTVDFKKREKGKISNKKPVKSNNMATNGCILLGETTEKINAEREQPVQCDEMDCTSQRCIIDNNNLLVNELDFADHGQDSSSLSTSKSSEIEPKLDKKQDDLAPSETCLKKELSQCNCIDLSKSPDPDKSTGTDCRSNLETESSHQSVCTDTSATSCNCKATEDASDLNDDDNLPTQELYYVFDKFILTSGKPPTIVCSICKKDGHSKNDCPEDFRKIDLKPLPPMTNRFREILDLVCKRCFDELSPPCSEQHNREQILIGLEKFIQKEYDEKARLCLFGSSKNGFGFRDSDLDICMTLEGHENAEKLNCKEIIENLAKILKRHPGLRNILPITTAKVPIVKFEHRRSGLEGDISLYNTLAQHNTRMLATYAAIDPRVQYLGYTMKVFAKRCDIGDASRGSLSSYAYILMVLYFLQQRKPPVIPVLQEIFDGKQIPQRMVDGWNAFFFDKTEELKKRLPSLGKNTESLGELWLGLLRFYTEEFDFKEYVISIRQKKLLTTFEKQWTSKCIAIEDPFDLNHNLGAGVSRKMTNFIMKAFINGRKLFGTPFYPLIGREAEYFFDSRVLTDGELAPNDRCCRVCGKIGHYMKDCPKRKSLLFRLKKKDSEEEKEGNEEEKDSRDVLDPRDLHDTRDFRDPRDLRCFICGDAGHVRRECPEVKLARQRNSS
Assay: EMSA; 2 mM Mg2+; RNA 2.5 nM; EMSA: 500 mM NaCl, 20 mM HEPES pH 7.5, 2 mM MgCl2, 5% glycerol, 1 mM TCEP; 10 ul, 3-50 ng protein, 2.5 nM RNA; native 12% PAGE in 0.5x TBE; temperature not stated
Conditions: protein: recombinant; tags: N-terminal His6-Trx, removed with TEV; label: 5'-32P; single strand

UGAGGUAGUAGUUUGUACAGUU (ssRNA) [let-7g guide]
binding result: binds
